Measurements published in the supplement of paper PMC5998384.

Key:
HeLa Kyoto [1] = assay: solubility in G1/S (NP-40 vs SDS abundance) (log2 ratio); higher = more soluble; conditions: cell cycle stage: G1/S
HeLa Kyoto [2] = assay: solubility change mitosis vs G1/S (difference of NP-40 vs SDS log2 ratios) (log2 ratio difference); higher = more soluble in mitosis
HeLa Kyoto [3] = assay: melting temperature (median over replicates), in situ; higher = more thermally stable
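Wherever melting temperature (median over replicates), in situ is given: HeLa Kyoto cells synchronized by double thymidine or nocodazole block, proteins quantified by TMT10plex mass spectrometry, three independent biological replicates.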
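Wherever solubility change mitosis vs G1/S (difference of NP-40 vs SDS log2 ratios) is given: synchronized HeLa Kyoto cells (double thymidine block for G1/S, nocodazole release for mitosis), protein amounts in NP-40 versus SDS lysates quantified by mass spectrometry, three biological replicates.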
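Wherever solubility in G1/S (NP-40 vs SDS abundance) is given: HeLa Kyoto cells arrested at G1/S by double thymidine block, proteins quantified by TMT10plex mass spectrometry in mild NP-40 versus SDS extracts, three biological replicates.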

Sequence	solubility in G1/S (log2) (HeLa Kyoto [1])	solubility change mitosis (log2) (HeLa Kyoto [2])	melting temperature (HeLa Kyoto [3]; cell cycle stage: G1/S)	melting temperature (HeLa Kyoto [3]; cell cycle stage: mitosis)
MDTAEDPAWLQLLQKDSSPPGPRPTAFFCPQDGSLGAGSSAMRDYCPSQQKASPAPPRHTPDQSPGMESRHRSPSGAGEGASCSDGPRGSLACPSPTCFSPQESPSKETLEAHGASISGTPEATTSGKPEPVSSVKTEPKSSDDRNPMFLEKMDFKSSKQADSTSIGKEDPGSSRKADPMFTGKAEPEILGKGDPVAPGRMDPMTVRKEDLGSLGKVDPLCSSKTYTVSPRKEDPGSLRKVDPVSSDKVDPVFPRKEEPRYSGKEHPVSSEKVAPTSAEKVDLVLSGKRDPGPSGKADPMPLESMDSASTGKTEPGLLGKLIPGSSGKNGPVSSGTGAPGSLGRLDPTCLGMADPASVGNVETVPATKEDSRFLGKMDPASSGEGRPVSGHTDTTASAKTDLTSLKNVDPMSSGKVDPVSLGKMDPMCSGKPELLSPGQAERVSVGKAGTVSPGKEDPVSSRREDPISAGSRKTSSEKVNPESSGKTNPVSSGPGDPRSLGTAGPPSAVKAEPATGGKGDPLSSEKAGLVASGKAAPTASGKAEPLAVGKEDPVSKGKADAGPSGQGDSVSIGKVVSTPGKTVPVPSGKVDPVSLGKAEAIPEGKVGSLPLEKGSPVTTTKADPRASGKAQPQSGGKAETKLPGQEGAAAPGEAGAVCLKKETPQASEKVDPGSCRKAEPLASGKGEPVSLGKADSAPSRKTESPSLGKVVPLSLEKTKPSSSSRQLDRKALGSARSPEGARGSEGRVEPKAEPVSSTEASSLGQKDLEAAGAERSPCPEAAAPPPGPRTRDNFTKAPSWEASAPPPPREDAGTQAGAQACVSVAVSPMSPQDGAGGSAFSFQAAPRAPSPPSRRDAGLQVSLGAAETRSVATGPMTPQAAAPPAFPEVRVRPGSALAAAVAPPEPAEPVRDVSWDEKGMTWEVYGAAMEVEVLGMAIQKHLERQIEEHGRQGAPAPPPAARAGPGRSGSVRTAPPDGAAKRPPGLFRALLQSVRRPRCCSRAGPTAE [GPRIN1]	0.2	-0.114	54.4 °C	53.5 °C
MAAFRDIEEVSQGLLSLLGANRAEAQQRRLLGRHEQVVERLLETQDGAEKQLREILTMEKEVAQSLLNAKEQVHQGGVELQQLEAGLQEAGEEDTRLKASLLQLTRELEELKEIEADLERQEKEVDEDTTVTIPSAVYVAQLYHQVSKIEWDYECEPGMVKGIHHGPSVAQPIHLDSTQLSRKFISDYLWSLVDTEW [SPC24]	-0.0462	0.363	49.2 °C	49.4 °C
MSSKKAKTKTTKKRPQRATSNVFAMFDQSQIQEFKEAFNMIDQNRDGFIDKEDLHDMLASLGKNPTDAYLDAMMNEAPGPINFTMFLTMFGEKLNGTDPEDVIRNAFACFDEEATGTIQEDYLRELLTTMGDRFTDEEVDELYREAPIDKKGNFNYIEFTRILKHGAKDKDD [MYL12B]	0.24	0.538	54 °C	52.7 °C
MKGSNRNKDHSAEGEGVGKRPKRKCLQWHPLLAKKLLDFSEEEEEEDEEEDIDKVQLLGADGLEQDVGETEDDESPEQRARRPMNAFLLFCKRHRSLVRQEHPRLDNRGATKILADWWAVLDPKEKQKYTDMAKEYKDAFMKANPGYKWCPTTNKPVKSPTPTVNPRKKLWAFPSDSSRDLPSPKKAKTEEMPQLNFGMADPTQMGGLSMLLLAGEHALGTPEVSSGTCRPDVSESPELRQKSPLFQFAEISSSTSHSDASTKQCQTSALFQFAEISSNTSQLGGAEPVKRCGKSALFQLAEMCLASEGMKMEESKLIKAKESDGGRIKELEKGKEEKEIKMEKTDETRLQKEAEFEKSAKENLRDSKELRNFEALQIDDIMAIKMEDPKEIRKEELEEDHKCSHFPDFSYSASSKIIISDVPSRKDHMCHPHGIMIIEDPAALNKPEKLKKKKKKSKMDRHGNDKSTPKKTCKKRQSSESDIESVIYTIEAVAKGDWGIEKLGDTPRKKVRTSSSGKGSILDAKPPKKKVKSREKKMSKEKSSDTTKESRPPDFISISASKNISGETPEGIKAEPLTPMEDALPPSLSGQAKPEDSDCHRKIETCGSRKSERSCKGALYKTLVSEGMLTSLRANVDRGKRSSGKGNSSDHEGCWNEESWTFSQSGTSGSKKFKKTKPKEDCLLGSAKLDEEFEKKFNSLPQYSPVTFDRKCVPVPRKKKKTGNVSSEPTKTSKGPFQSQKKNLFHKIVSKYKHKKEKPNVPEKGSGDKWSNKQLFLDAIHPTEAIFSEDRNTMEPVHKVKNIPSIFNTPEPTTTQEPLVGSQKRKARKTKITHLVRTADGRVSPAGGTLDDKPKEQLQRSLPKATETDCNDKCSHNTEVGETRSSTPEMPAVSAFFSLAALAEVAAMENVHRGQRSTPLTHDGQPKEMPQAPVLISCADQ [BBX]	-0.353	0.277	47.4 °C	50 °C
MSLKMDNRDVAGKANRWFGVAPPKSGKMNMNILHQEELIAQKKREIEAKMEQKAKQNQVASPQPPHPGEITNAHNSSCISNKFANDGSFLQQFLKLQKAQTSTDAPTSAPSAPPSTPTPSAGKRSLLISRRTGLGLASLPGPVKSYSHAKQLPVAHRPSVFQSPDEDEEEDYEQWLEIKVSPPEGAETRKVIEKLARFVAEGGPELEKVAMEDYKDNPAFAFLHDKNSREFLYYRKKVAEIRKEAQKSQAASQKVSPPEDEEVKNLAEKLARFIADGGPEVETIALQNNRENQAFSFLYEPNSQGYKYYRQKLEEFRKAKASSTGSFTAPDPGLKRKSPPEALSGSLPPATTCPASSTPAPTIIPAPAAPGKPASAATVKRKRKSRWGPEEDKVELPPAELVQRDVDASPSPLSVQDLKGLGYEKGKPVGLVGVTELSDAQKKQLKEQQEMQQMYDMIMQHKRAMQDMQLLWEKAVQQHQHGYDSDEEVDSELGTWEHQLRRMEMDKTREWAEQLTKMGRGKHFIGDFLPPDELEKFMETFKALKEGREPDYSEYKEFKLTVENIGYQMLMKMGWKEGEGLGSEGQGIKNPVNKGTTTVDGAGFGIDRPAELSKEDDEYEAFRKRMMLAYRFRPNPLNNPRRPYY [SUGP1]	0.221	0.255	47.3 °C	50.8 °C
MGSTESSEGRRVSFGVDEEERVRVLQGVRLSENVVNRMKEPSSPPPAPTSSTFGLQDGNLRAPHKESTLPRSGSSGGQQPSGMKEGVKRYEQEHAAIQDKLFQVAKREREAATKHSKASLPTGEGSISHEEQKSVRLARELESREAELRRRDTFYKEQLERIERKNAEMYKLSSEQFHEAASKMESTIKPRRVEPVCSGLQAQILHCYRDRPHEVLLCSDLVKAYQRCVSAAHKG [CHCHD6]	0.215	0.232	54.7 °C	53.2 °C
MEPAVSLAVCALLFLLWVRLKGLEFVLIHQRWVFVCLFLLPLSLIFDIYYYVRAWVVFKLSSAPRLHEQRVRDIQKQVREWKEQGSKTFMCTGRPGWLTVSLRVGKYKKTHKNIMINLMDILEVDTKKQIVRVEPLVTMGQVTALLTSIGWTLPVLPELDDLTVGGLIMGTGIESSSHKYGLFQHICTAYELVLADGSFVRCTPSENSDLFYAVPWSCGTLGFLVAAEIRIIPAKKYVKLRFEPVRGLEAICAKFTHESQRQENHFVEGLLYSLDEAVIMTGVMTDEAEPSKLNSIGNYYKPWFFKHVENYLKTNREGLEYIPLRHYYHRHTRSIFWELQDIIPFGNNPIFRYLFGWMVPPKISLLKLTQGETLRKLYEQHHVVQDMLVPMKCLQQALHTFQNDIHVYPIWLCPFILPSQPGLVHPKGNEAELYIDIGAYGEPRVKHFEARSCMRQLEKFVRSVHGFQMLYADCYMNREEFWEMFDGSLYHKLREKLGCQDAFPEVYDKICKAARH [DHCR24]	-0.264	-0.166	51.3 °C	52.3 °C
MSDLEDDETPQLSAHALAALQEFYAEQKQQIEPGEDDKYNIGIIEENWQLSQFWYSQETALQLAQEAIAAVGEGGRIACVSAPSVYQKLRELCRENFSIYIFEYDKRFAMYGEEFIFYDYNNPLDLPERIAAHSFDIVIADPPYLSEECLRKTSETVKYLTRGKILLCTGAIMEEQAAELLGVKMCTFVPRHTRNLANEFRCYVNYDSGLDCGI [N6AMT2]	-0.331	0.0973		50.6 °C
MLRRVTVAAVCATRRKLCEAGRELAALWGIETRGRCEDSAAARPFPILAMPGRNKAKSTCSCPDLQPNGQDLGENSRVARLGADESEEEGRRGSLSNAGDPEIVKSPSDPKQYRYIKLQNGLQALLISDLSNMEGKTGNTTDDEEEEEVEEEEEDDDEDSGAEIEDDDEEGFDDEDEFDDEHDDDLDTEDNELEELEERAEARKKTTEKQSAAALCVGVGSFADPDDLPGLAHFLEHMVFMGSLKYPDENGFDAFLKKHGGSDNASTDCERTVFQFDVQRKYFKEALDRWAQFFIHPLMIRDAIDREVEAVDSEYQLARPSDANRKEMLFGSLARPGHPMGKFFWGNAETLKHEPRKNNIDTHARLREFWMRYYSSHYMTLVVQSKETLDTLEKWVTEIFSQIPNNGLPRPNFGHLTDPFDTPAFNKLYRVVPIRKIHALTITWALPPQQQHYRVKPLHYISWLVGHEGKGSILSFLRKKCWALALFGGNGETGFEQNSTYSVFSISITLTDEGYEHFYEVAYTVFQYLKMLQKLGPEKRIFEEIRKIEDNEFHYQEQTDPVEYVENMCENMQLYPLQDILTGDQLLFEYKPEVIGEALNQLVPQKANLVLLSGANEGKCDLKEKWFGTQYSIEDIENSWAELWNSNFELNPDLHLPAENKYIATDFTLKAFDCPETEYPVKIVNTPQGCLWYKKDNKFKIPKAYIRFHLISPLIQKSAANVVLFDIFVNILTHNLAEPAYEADVAQLEYKLVAGEHGLIIRVKGFNHKLPLLFQLIIDYLAEFNSTPAVFTMITEQLKKTYFNILIKPETLAKDVRLLILEYARWSMIDKYQALMDGLSLESLLSFVKEFKSQLFVEGLVQGNVTSTESMDFLKYVVDKLNFKPLEQEMPVQFQVVELPSGHHLCKVKALNKGDANSEVTVYYQSGTRSLREYTLMELLVMHMEEPCFDFLRTKQTLGYHVYPTCRNTSGILGFSVTVGTQATKYNSEVVDKKIEEFLSSFEEKIENLTEEAFNTQVTALIKLKECEDTHLGEEVDRNWNEVVTQQYLFDRLAHEIEALKSFSKSDLVNWFKAHRGPGSKMLSVHVVGYGKYELEEDGTPSSEDSNSSCEVMQLTYLPTSPLLADCIIPITDIRAFTTTLNLLPYHKIVK [NRD1]	0.116	-0.188	50.5 °C	50.9 °C
MMKFKPNQTRTYDREGFKKRAACLCFRSEQEDEVLLVSSSRYPDQWIVPGGGMEPEEEPGGAAVREVYEEAGVKGKLGRLLGIFENQDRKHRTYVYVLTVTEILEDWEDSVNIGRKREWFKVEDAIKVLQCHKPVHAEYLEKLKLGCSPANGNSTVPSLPDNNALFVTAAQTSGLPSSVR [NUDT4]	0.505	-0.0227		49.3 °C
